Test results from the supplement of paper PMC9112550, “Optimization of the antimicrobial peptide Bac7 by deep mutational scanning” (BMC Biology, 2022).

Test system: Escherichia coli TOP10
Assay: shrunken log2 fold change of peptide-encoding DNA abundance (4.5 h post-induction vs induction); higher = less antimicrobial activity (less host growth inhibition)
Details: time post-induction: 4.5 h; library: site-saturation at positions 5, 18, 19, 20
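Also: peptides expressed intracellularly from a pBAD plasmid library in pooled LB shake-flask culture, induced with 0.3% L-arabinose, DNA abundance read by NGS, three biological replicates, DESeq2 with apeglm shrinkage.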

Sequence | shrunken log2 fold change
RRIRGRPPRLPRPRPRPHIGPRP | 0.109
RRIRERPPRLPRPRPRPQSWPRP | 0.104
RRIRWRPPRLPRPRPRPSVDPRP | 0.0991
RRIRERPPRLPRPRPRPHGAPRP | 0.0169
RRIRARPPRLPRPRPRPRAHPRP | 0.256
RRIRLRPPRLPRPRPRPCMWPRP | -0.0832
RRIRDRPPRLPRPRPRPYVSPRP | -0.032
RRIRKRPPRLPRPRPRPAEVPRP | 0.171
RRIRRRPPRLPRPRPRPNAMPRP | 0.258
RRIRCRPPRLPRPRPRPTPYPRP | 0.00933
RRIRARPPRLPRPRPRPSPNPRP | 0.0681
RRIRMRPPRLPRPRPRPKGWPRP | 1.75
RRIRPRPPRLPRPRPRPKIPPRP | -0.408
RRIRYRPPRLPRPRPRPITKPRP | -0.184
RRIRFRPPRLPRPRPRPGGYPRP | 0.0294
RRIRQRPPRLPRPRPRPKEEPRP | 0.00489
RRIRARPPRLPRPRPRPIRYPRP | -0.263
RRIRMRPPRLPRPRPRPPDPPRP | 1.25
RRIRHRPPRLPRPRPRPKTHPRP | -0.314
RRIRMRPPRLPRPRPRPQRQPRP | 0.0595
RRIRVRPPRLPRPRPRPAHAPRP | 0.068
RRIRFRPPRLPRPRPRPIGTPRP | -0.329
RRIRMRPPRLPRPRPRPGNMPRP | -0.331
RRIRARPPRLPRPRPRPIDDPRP | 0.178
RRIRRRPPRLPRPRPRPAEHPRP | 0.313

Sequence | shrunken log2 fold change
RRIRLRPPRLPRPRPRPRNEPRP | -0.0675
RRIRPRPPRLPRPRPRPCAWPRP | 0.0868
RRIRSRPPRLPRPRPRPGYAPRP | 0.111
RRIRFRPPRLPRPRPRPKQLPRP | -0.123
RRIRQRPPRLPRPRPRPVAEPRP | 0.478
RRIRGRPPRLPRPRPRPGYKPRP | 0.191
RRIRRRPPRLPRPRPRPHPWPRP | 0.25
RRIRRRPPRLPRPRPRPMFRPRP | -0.0342
RRIRQRPPRLPRPRPRPEYNPRP | -0.424
RRIRIRPPRLPRPRPRPDQAPRP | -0.002
RRIRQRPPRLPRPRPRPLSKPRP | -0.194
RRIRQRPPRLPRPRPRPDCTPRP | 0.0901
RRIRRRPPRLPRPRPRPSYHPRP | -0.368
RRIRERPPRLPRPRPRPATEPRP | -0.155
RRIRSRPPRLPRPRPRPIWEPRP | 0.0462
RRIRERPPRLPRPRPRPTTVPRP | -0.147
RRIRKRPPRLPRPRPRPWWRPRP | -0.108
RRIRPRPPRLPRPRPRPHERPRP | 0.198
RRIRPRPPRLPRPRPRPEMDPRP | 0.116
RRIRLRPPRLPRPRPRPVHWPRP | 0.4
RRIRTRPPRLPRPRPRPNSCPRP | 0.0686
RRIRSRPPRLPRPRPRPAANPRP | 0.403
RRIRLRPPRLPRPRPRPAPDPRP | 0.215
RRIRRRPPRLPRPRPRPFADPRP | -0.0461
RRIRLRPPRLPRPRPRPKWNPRP | -0.299

Sequence | shrunken log2 fold change
RRIRIRPPRLPRPRPRPMCGPRP | -0.0603
RRIRERPPRLPRPRPRPISQPRP | -0.058
RRIRCRPPRLPRPRPRPRWDPRP | -0.128
RRIRFRPPRLPRPRPRPKDWPRP | 0.233
RRIRARPPRLPRPRPRPEDMPRP | 0.816
RRIRFRPPRLPRPRPRPQFEPRP | -0.19
RRIRWRPPRLPRPRPRPDVNPRP | -0.125
RRIRCRPPRLPRPRPRPSFKPRP | -0.75
RRIRNRPPRLPRPRPRPIPFPRP | -0.0196
RRIRNRPPRLPRPRPRPKDAPRP | 0.0655
RRIRMRPPRLPRPRPRPVKAPRP | -0.0481
RRIRARPPRLPRPRPRPHFVPRP | 0.0302
RRIRGRPPRLPRPRPRPMANPRP | 0.057
RRIRIRPPRLPRPRPRPMPTPRP | 0.316
RRIRHRPPRLPRPRPRPRDPPRP | -0.153
RRIRMRPPRLPRPRPRPWEAPRP | -0.033
RRIRVRPPRLPRPRPRPPCTPRP | -0.159
RRIRNRPPRLPRPRPRPIGGPRP | -0.00925
RRIRFRPPRLPRPRPRPQPWPRP | 0.334
RRIRIRPPRLPRPRPRPRGHPRP | -0.114
RRIRMRPPRLPRPRPRPDRSPRP | -0.178
RRIRMRPPRLPRPRPRPIDDPRP | -0.0846
RRIRCRPPRLPRPRPRPSAMPRP | 0.272
RRIRERPPRLPRPRPRPFQYPRP | -0.64
RRIRFRPPRLPRPRPRPMSWPRP | 0.131

Sequence | shrunken log2 fold change
RRIRSRPPRLPRPRPRPYMCPRP | -0.903
RRIRSRPPRLPRPRPRPNCVPRP | 0.0124
RRIRDRPPRLPRPRPRPKCEPRP | -0.351
RRIRCRPPRLPRPRPRPISMPRP | -0.65
RRIRHRPPRLPRPRPRPEITPRP | -0.0206
RRIRWRPPRLPRPRPRPVGKPRP | 0.107
RRIRWRPPRLPRPRPRPYIKPRP | -0.736
RRIRERPPRLPRPRPRPAAQPRP | 0.261
RRIRNRPPRLPRPRPRPQGLPRP | -0.109
RRIRKRPPRLPRPRPRPQEWPRP | -0.0193
RRIRNRPPRLPRPRPRPHAEPRP | 0.00246
RRIRFRPPRLPRPRPRPANYPRP | -0.43
RRIRRRPPRLPRPRPRPKIAPRP | 0.147
RRIRYRPPRLPRPRPRPPVNPRP | -0.153
RRIRYRPPRLPRPRPRPANEPRP | 0.0338
RRIRGRPPRLPRPRPRPVCDPRP | 0.959
RRIRPRPPRLPRPRPRPQKMPRP | -0.201
RRIRCRPPRLPRPRPRPTSTPRP | -0.165
RRIRQRPPRLPRPRPRPITCPRP | -0.0276
RRIRYRPPRLPRPRPRPHKYPRP | -1.08
RRIRKRPPRLPRPRPRPRMHPRP | 0.557
RRIRGRPPRLPRPRPRPSTTPRP | 0.875
RRIRIRPPRLPRPRPRPQCQPRP | -0.153
RRIRFRPPRLPRPRPRPNKWPRP | -0.266
RRIRRRPPRLPRPRPRPLSSPRP | 0.234

Sequence | shrunken log2 fold change
RRIRSRPPRLPRPRPRPFSAPRP | -0.259
RRIRDRPPRLPRPRPRPTWCPRP | 0.18
RRIRWRPPRLPRPRPRPYDKPRP | -0.534
RRIRDRPPRLPRPRPRPLFNPRP | -0.375
RRIRERPPRLPRPRPRPPRNPRP | 0.0296
RRIRVRPPRLPRPRPRPEASPRP | 0.0108
RRIRFRPPRLPRPRPRPYVWPRP | 0.109
RRIRYRPPRLPRPRPRPKTYPRP | -0.781
RRIRPRPPRLPRPRPRPYRMPRP | 0.0542
RRIRERPPRLPRPRPRPEKMPRP | -0.421
RRIRARPPRLPRPRPRPCPGPRP | -0.258
RRIRFRPPRLPRPRPRPQHIPRP | -0.51
RRIRHRPPRLPRPRPRPCMKPRP | 0.0319
RRIRHRPPRLPRPRPRPEIYPRP | -0.413
RRIRNRPPRLPRPRPRPHYAPRP | -0.0337
RRIRDRPPRLPRPRPRPNNLPRP | -0.556
RRIRSRPPRLPRPRPRPPSFPRP | 0.0731
RRIRYRPPRLPRPRPRPNDHPRP | -1.23
RRIRHRPPRLPRPRPRPVWQPRP | 0.0177
RRIRYRPPRLPRPRPRPNSAPRP | -0.805
RRIRQRPPRLPRPRPRPPKTPRP | 0.113
RRIRHRPPRLPRPRPRPAEQPRP | 0.0649
RRIRQRPPRLPRPRPRPRQNPRP | 0.402
RRIRRRPPRLPRPRPRPDLRPRP | 0.398
RRIRWRPPRLPRPRPRPFWSPRP | 0.284
